According to publication doi:10.1101/2022.04.10.487811:

Target: HA H7 HK17 (A/Hong Kong/125/2017(H7N9)) hemagglutinin (influenza A virus A/Hong Kong/125/2017(H7N9))
Assay: BLI

For MEDI8852 Fab (wildtype), the Kd was 0.21 nM.
